Literature values as cited in article PMC4937678, “In Vivo Measurement and Characterization of a Novel Formulation of [^177Lu]-DOTA-Octreotate” (Asia Oceania Journal of Nuclear Medicine and Biology, 2016).
Where two headings read alike, the source gives them in different places.

Excerpt: Table 4 Comparison of Published Radiation Dose Estimates for Different Formulations of [^177Lu]-DOTA-Octreotate ([3], [7]-[11]) | column: Dose (mGy/MBq)
[1] = 6 subjects, ref Kwekkeboom (2001) [3]
[2] = 10 subjects, value (range), ref Cremonesi (2006) [10]
[3] = 24 subjects, range, ref Sandstrom (2010) [8]

For C[C@@H](O)[C@H](NC(=O)[C@@H]1CSSC[C@H](NC(=O)[C@@H](Cc2ccccc2)NC(=O)CN2CCN(CC(=O)[O-])CCN(CC(=O)[O-])CCN(CC(=O)[O-])CC2)C(=O)N[C@@H](Cc2ccc(O)cc2)C(=O)N[C@H](Cc2c[nH]c3ccccc23)C(=O)N[C@@H](CCCCN)C(=O)N[C@@H]([C@@H](C)O)C(=O)N1)C(=O)O.[177Lu+3] [[^177Lu]-DOTA-Octreotate], the “Dose, Liver” value [1] is listed as 0.21 ± 0.08 mGy/MBq, the “Dose, Red Marrow” value [1] is listed as 0.07 ± 0.01 mGy/MBq and the “Dose, Spleen” value [1] is listed as 2.15 ± 0.39 mGy/MBq. The “Dose, Liver” value [2] was 0.18 (0.05 – 0.34) mGy/MBq, the “Dose, Red Marrow” value [2] was 0.04 (0.02 – 0.06) mGy/MBq and the “Dose, Spleen” value [2] was 0.64 (0.29-2.91) mGy/MBq. The “Dose, Red Marrow” value (14 subjects, ref Forrer (2009) [9]) was 0.02 ± 0.03 mGy/MBq, the “Dose, Kidney (range)” value [3] was “(0.32 – 1.67) mGy/MBq” and the “Dose, Liver (range)” value [3] was “(0.13 – 1.10) mGy/MBq”. The “Dose, Spleen (range)” value [3] was 0.21 – 1.86 mGy/MBq, the “Dose, Red Marrow” value (27 subjects, ref Wehrmann (2007) [11]) was 0.04 ± 0.02 mGy/MBq and the “Dose, Spleen” value (73 subjects, ref Wehrmann (2007) [11]) was 1.2 ± 0.5 mGy/MBq. For the same compound, the “Dose, Kidney” value (89 subjects, ref Wehrmann (2007) [11]) was 0.9 ± 0.3 mGy/MBq, the “Dose, Kidney” value (no renal protection, 6 subjects, ref Kwekkeboom (2001) [3]) was 1.65 mGy/MBq and the “Dose, Kidney” value (with renal protection, 5 subjects, ref Kwekkeboom (2001) [3]) was 0.88 mGy/MBq.
